How the values were obtained:
MS2 coat protein [1] = test: apparent KD of MS2 coat protein, switch ON state; designed switch direction (-1 OFF switch, 1 ON switch): 1; higher = weaker reporter binding; conditions: FMN input: 0 or 200 uM; Eterna round: R93 (includes R88 designs)
Outline: (§1)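 Designed RNA switches, transcribed on-chip from Illumina sequencing clusters, were titrated with SNAP-549-labelled MS2 coat protein from 0.7 or 1.5 nM to 3 µM in twofold steps. The solution was 100 mM Tris-HCl pH 7.5, 80 mM KCl, 4 mM MgCl2, with constant ligand or without it. Apparent KD is the median over each design's normalised cluster binding-curve fits.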

MS2 coat protein [2] = test: apparent KD of MS2 coat protein, switch OFF state (with FMN for OFF switches, without FMN for ON switches); designed switch direction (-1 OFF switch, 1 ON switch): 1; higher = weaker reporter binding; conditions: FMN input: 0 or 200 uM; Eterna round: R93 (includes R88 designs)
Outline: as §1

With “GAAAAACAUGAGGAUCACCCAUGUAGAGAUAUGGGAGGAUAUACGAAGACGAAAGUCGAGGUAGAAGGCCUAAAAG [Garnet 56]” the “apparent KD of MS2 coat protein” value (MS2 coat protein [1]) was 27.7 nM and the “apparent KD of MS2 coat protein” value (MS2 coat protein [2]) was 108 nM.

For “UGAAAACAUGAGGAUCACCCAUGUCUAGGAAAUCAAGGAUAUGGGCCGGCAAUAGGCGGGCCAGAAGGUGAGAAAU [Arisati]”, the “apparent KD of MS2 coat protein” value (MS2 coat protein [1]) was 88.7 nM and the “apparent KD of MS2 coat protein” value (MS2 coat protein [2]) was 144 nM.

For “AAAAAAAAAGUAGAGGAUAUCCGAGUGGUAACAUGAGGAUCACCCAUGUGAAGAAAGGAAGAUGAGGAGAAGGCUACAAAAAAAAA [Mat - Mod of Nando]”, the “apparent KD of MS2 coat protein” value (MS2 coat protein [1]) was 21.2 nM and the “apparent KD of MS2 coat protein” value (MS2 coat protein [2]) was 42.2 nM.

“AAAGUACAUGAGGAUCACCCAUGUUGAAAAAAUCGAGGAUAUGCGAAAAAAAAAAAAAAAGCAGAAGGUGAAAAAA [I 'NO' this state well 2]” was tested, and the “apparent KD of MS2 coat protein” value (MS2 coat protein [1]) was 24.4 nM and the “apparent KD of MS2 coat protein” value (MS2 coat protein [2]) was 38.6 nM.

With “AAAUAUAAAAGAUAGGAUAUACUAAAAUAAACAUGAGGAUCACCCAUGUAAAAAAAAAAACUCAUGUAGAAGGAUCAAAUAUAAA [ss2 8th]” the “apparent KD of MS2 coat protein” value (MS2 coat protein [1]) was 33.4 nM and the “apparent KD of MS2 coat protein” value (MS2 coat protein [2]) was 38.1 nM.

For “AUCUAACAUGAGGAUCACCCAUGUAUUCAAAAACAAGGAUAUAUAACAAACAAACAACAAAUAGAAGGUGUAAAUA [Default title]”, the “apparent KD of MS2 coat protein” value (MS2 coat protein [1]) was 19 nM and the “apparent KD of MS2 coat protein” value (MS2 coat protein [2]) was 19.6 nM.

For “AUAAAAUAAAAUGAGGAUAUCUAUAAUAAAACAUGAGGAUCACCCAUGUUUAAACAAAGAUCAUGGGAGAAGGCAUAAAAUAAAU [SS2 M 40]”, the “apparent KD of MS2 coat protein” value (MS2 coat protein [1]) was 15.9 nM and the “apparent KD of MS2 coat protein” value (MS2 coat protein [2]) was 14 nM.

In the case of “AUAUAUAUAAGGUAGGAUAUCCAAAAGUAAACAUGAGGAUCACCCAUGUAAAAAAUCUAAAAAUGGGAGAAGGACCAUAUAUAUA”, the “apparent KD of MS2 coat protein” value (MS2 coat protein [1]) is reported as 19 nM and the “apparent KD of MS2 coat protein” value (MS2 coat protein [2]) is reported as 37.1 nM.

“AAUAAACAUGAGGAUCACCCAUGUGAAAAUAUGGGAGGAUAUAGGAAAAAAAAAAAAAAACUAGAAGGCCCAAAAA [SS! 1 MT 12]” was tested, and the “apparent KD of MS2 coat protein” value (MS2 coat protein [1]) was 75.3 nM and the “apparent KD of MS2 coat protein” value (MS2 coat protein [2]) was 138 nM.

In the case of “AAAAGACAUGAGGAUCACCCAUGUCAAGACGUAGGAGGAUAUGUCGUGAAAAAAGACUUGGCAGAAGGCCUGUGUC [SS1 - 41]”, the “apparent KD of MS2 coat protein” value (MS2 coat protein [1]) is reported as 15 nM and the “apparent KD of MS2 coat protein” value (MS2 coat protein [2]) is reported as 21.4 nM.

With “AGAAAUAAAAGAGAGGAUAUCCAAAAGAAAACAUGAGGAUCACCCAUGUAGACGAAAGUCAAAUGGGAGAAGGCUCAAAAUAAAG [80% More Helter Skelter 2 + Hairpin]” the “apparent KD of MS2 coat protein” value (MS2 coat protein [1]) was 61.4 nM and the “apparent KD of MS2 coat protein” value (MS2 coat protein [2]) was 98.7 nM.

In the case of “AGGAGACAUGAGGAUCACCCAUGUGAGAAGAGGCGAGGAUAUCGAAAGAAAGAAGAGAAACGAGAAGGCGCGAGUU [salish99-SS1-022]”, the “apparent KD of MS2 coat protein” value (MS2 coat protein [1]) is reported as 25.5 nM and the “apparent KD of MS2 coat protein” value (MS2 coat protein [2]) is reported as 33.8 nM.

With “GGAAGACAUGAGGAUCACCCAUGUGGGAAUAUGGGAGGAUAUACAAAGACGAGAGUCAGAGUAGAAGGCCUAGGAA [salish99-ss1-99]” the “apparent KD of MS2 coat protein” value (MS2 coat protein [1]) was 37.8 nM and the “apparent KD of MS2 coat protein” value (MS2 coat protein [2]) was 176 nM.

For “GUCCAACAUGAGGAUCACCCAUGUAAGCGUGAUCAAGGAUAUGGGCGAAAGAAAACGCAACCAGAAGGUGAGCGCC [Aanmati]”, the “apparent KD of MS2 coat protein” value (MS2 coat protein [1]) was 160 nM and the “apparent KD of MS2 coat protein” value (MS2 coat protein [2]) was 135 nM.

In the case of “AAAAAAAAAAGUGAGGAUAUGUGAUCGGUGACAUGAGGAUCACCCAUGUGAGGCCUUCGGGCCAAGCAGAAGGUAUAAAAAAAAA [Same State 2-VII]”, the “apparent KD of MS2 coat protein” value (MS2 coat protein [1]) is reported as 105 nM and the “apparent KD of MS2 coat protein” value (MS2 coat protein [2]) is reported as 29.4 nM.

With “GAAGACAUAGUUCAGGAUAUGGGAAUAGUCACAUGAGGAUCACCCAUGUGCAUUUAUAUGCGCGCUCAGAAGGGAGGUAGAUAAU [Mat - Same state - Malcolm Mod - D118]” the “apparent KD of MS2 coat protein” value (MS2 coat protein [1]) was 26.9 nM and the “apparent KD of MS2 coat protein” value (MS2 coat protein [2]) was 27 nM.

“AAUAUAUUAUUUAAGGAUAUCAUAGGAAACACAUGAGGAUCACCCAUGUGGGAGACUUGGACGGGUGAGAAGGUGGAUAAUAUAU [Samwise Clockwise 37 - Jieux - Same State 2]” was tested, and the “apparent KD of MS2 coat protein” value (MS2 coat protein [1]) was 19.2 nM and the “apparent KD of MS2 coat protein” value (MS2 coat protein [2]) was 20.7 nM.

“GAGAAACAUGAGGAUCACCCAUGUAGAAAUAUGGGAGGAUAUACAAAGACGAGAGUCAAAGUAGAAGGCCUAGAAG [77%, Mat - Mod of Eli - With 3 more G's]” was tested, and the “apparent KD of MS2 coat protein” value (MS2 coat protein [1]) was 18.8 nM and the “apparent KD of MS2 coat protein” value (MS2 coat protein [2]) was 53.6 nM.

“AAAUAAAUGACUAAGGAUAUCUCUGAGAAAACAUGAGGAUCACCCAUGUAAUAAUAAAAAGGGUGAGAGAAGGUAGUCAACAAAC [Same State 2.1 (Pariah 4 -changed stack on 9nt hairpin)]” was tested, and the “apparent KD of MS2 coat protein” value (MS2 coat protein [1]) was 18 nM and the “apparent KD of MS2 coat protein” value (MS2 coat protein [2]) was 68 nM.

In the case of “GGAGUACAUGAGGAUCACCCAUGUUGGAACGAAGUAGGAUAUGUACAAUAUUAAAUAAAAACAGAAGGACUAAUAA [Meow]”, the “apparent KD of MS2 coat protein” value (MS2 coat protein [1]) is reported as 30.4 nM and the “apparent KD of MS2 coat protein” value (MS2 coat protein [2]) is reported as 55.1 nM.

“GCGAAUAUGGGUUAGGAUAUGCGCGCAUGUACAUGAGGAUCACCCAUGUUUACGGGCGCCUUUGAGCAGAAGGAGCUAAUCAACGC [SameState2Try2_Neo]” was tested, and the “apparent KD of MS2 coat protein” value (MS2 coat protein [1]) was 21.5 nM and the “apparent KD of MS2 coat protein” value (MS2 coat protein [2]) was 24.2 nM.

In the case of “AGGAAACAUGAGGAUCACCCAUGUAGAAAUAUGGGAGGAUAUCGGAAUAAAAUAAAGAAACGAGAAGGCCUAAAAG [59%, Flamingo, 3]”, the “apparent KD of MS2 coat protein” value (MS2 coat protein [1]) is reported as 38.8 nM and the “apparent KD of MS2 coat protein” value (MS2 coat protein [2]) is reported as 324 nM.

— the supplement of paper PMC9170038
